Patent US7238711
Values joined by “and” are separate entries in the source; they are usually repeats but may differ in a detail not shown here. Identical values can stand only once. No end group written: not given here.

Columns and labels:
[1] = target: chemokine receptors on THP-1 cells; experiment: binding to THP-1 cells
[2] = target: Duffy Antigen Receptor for Chemokines (DARC) (human) (UniProt Q16570); experiment: DARC binding, Table 18
[3] = target: Duffy Antigen Receptor for Chemokines (DARC) (human) (UniProt Q16570); experiment: Duffy binding
[4] = target: Duffy Antigen Receptor for Chemokines (DARC) (human) (UniProt Q16570); experiment: Duffy binding, against the LFL peptide
CXCR4 (human) = CXCR4 (human) (UniProt P61073); experiment: not stated (printed as affinity constant)
CCR5 (human) = CCR5 (human) (UniProt P51681); experiment: not stated (printed as affinity constant)
[5] = target: T1, Duffy Antigen Receptor for Chemokines (DARC) (human), Q16570; experiment: estimated ka for red blood cells divided by average inhibitory ED50
T1 chain: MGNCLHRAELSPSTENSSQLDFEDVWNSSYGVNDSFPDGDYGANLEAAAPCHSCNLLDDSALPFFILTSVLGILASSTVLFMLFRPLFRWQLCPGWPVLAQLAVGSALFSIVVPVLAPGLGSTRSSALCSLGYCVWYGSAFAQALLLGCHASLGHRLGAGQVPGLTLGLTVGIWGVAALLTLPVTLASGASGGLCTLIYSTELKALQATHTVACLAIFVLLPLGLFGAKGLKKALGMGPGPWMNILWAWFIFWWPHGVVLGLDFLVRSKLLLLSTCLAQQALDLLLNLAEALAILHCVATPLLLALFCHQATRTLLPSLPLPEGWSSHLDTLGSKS

CXCR1 (human), P25024 = target: T2, CXCR1 (human), P25024; experiment: biotin-labeled peptide at 10 µM on CHO transformants, 125I-streptavidin
T2 chain: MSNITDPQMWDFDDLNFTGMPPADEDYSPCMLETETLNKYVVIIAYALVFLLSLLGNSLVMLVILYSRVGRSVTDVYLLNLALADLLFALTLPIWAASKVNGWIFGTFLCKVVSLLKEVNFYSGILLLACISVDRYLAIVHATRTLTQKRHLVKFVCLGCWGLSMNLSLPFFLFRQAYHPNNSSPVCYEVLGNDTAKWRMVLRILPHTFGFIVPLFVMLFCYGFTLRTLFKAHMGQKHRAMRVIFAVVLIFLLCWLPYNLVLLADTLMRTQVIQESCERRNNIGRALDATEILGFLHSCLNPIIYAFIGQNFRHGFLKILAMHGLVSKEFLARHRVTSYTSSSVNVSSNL

CXCR2 (human), P25025 = target: T3, CXCR2 (human), P25025; experiment: as above
T3 chain: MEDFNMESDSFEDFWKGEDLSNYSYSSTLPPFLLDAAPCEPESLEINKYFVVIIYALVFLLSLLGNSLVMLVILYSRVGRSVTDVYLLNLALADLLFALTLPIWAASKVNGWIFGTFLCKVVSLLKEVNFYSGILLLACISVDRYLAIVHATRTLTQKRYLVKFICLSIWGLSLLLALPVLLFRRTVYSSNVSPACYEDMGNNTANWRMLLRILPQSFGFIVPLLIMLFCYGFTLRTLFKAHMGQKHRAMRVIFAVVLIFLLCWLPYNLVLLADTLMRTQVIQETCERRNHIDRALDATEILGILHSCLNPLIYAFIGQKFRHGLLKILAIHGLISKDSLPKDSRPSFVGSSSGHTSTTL

[6] = target: cell surface molecule on THP-1 cells; experiment: binding of biotinylated peptide 3 to THP-1 cells, labeled streptavidin
CCR2 (human), P41597 = experiment: biotin-labeled peptide at 10 µM on HOS transformants, 125I-streptavidin
CCR1 (human), P32246 = target: T4, CCR1 (human), P32246; experiment: as above
T4 chain: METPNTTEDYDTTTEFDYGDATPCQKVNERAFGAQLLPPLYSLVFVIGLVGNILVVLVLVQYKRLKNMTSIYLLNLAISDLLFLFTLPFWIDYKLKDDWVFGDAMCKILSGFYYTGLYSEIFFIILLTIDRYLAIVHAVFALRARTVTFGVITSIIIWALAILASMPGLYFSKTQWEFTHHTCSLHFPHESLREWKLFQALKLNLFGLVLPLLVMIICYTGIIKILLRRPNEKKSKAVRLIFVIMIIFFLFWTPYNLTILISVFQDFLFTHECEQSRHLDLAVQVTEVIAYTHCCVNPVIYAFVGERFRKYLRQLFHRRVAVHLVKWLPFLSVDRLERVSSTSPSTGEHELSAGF

CCR3 (human), P51677 = target: T5, CCR3 (human), P51677; experiment: as above
T5 chain: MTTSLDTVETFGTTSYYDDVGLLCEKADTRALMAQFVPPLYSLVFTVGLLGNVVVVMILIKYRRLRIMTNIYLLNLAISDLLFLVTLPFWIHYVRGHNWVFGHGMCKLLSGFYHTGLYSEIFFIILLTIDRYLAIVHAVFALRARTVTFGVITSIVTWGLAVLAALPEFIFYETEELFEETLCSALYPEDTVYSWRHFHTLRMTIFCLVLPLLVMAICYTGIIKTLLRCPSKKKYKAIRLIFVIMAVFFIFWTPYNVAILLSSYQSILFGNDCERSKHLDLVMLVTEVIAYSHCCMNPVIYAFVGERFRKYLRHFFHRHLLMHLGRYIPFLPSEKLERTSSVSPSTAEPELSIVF

CCR4 (human), P51679 = target: T6, CCR4 (human), P51679; experiment: as above
T6 chain: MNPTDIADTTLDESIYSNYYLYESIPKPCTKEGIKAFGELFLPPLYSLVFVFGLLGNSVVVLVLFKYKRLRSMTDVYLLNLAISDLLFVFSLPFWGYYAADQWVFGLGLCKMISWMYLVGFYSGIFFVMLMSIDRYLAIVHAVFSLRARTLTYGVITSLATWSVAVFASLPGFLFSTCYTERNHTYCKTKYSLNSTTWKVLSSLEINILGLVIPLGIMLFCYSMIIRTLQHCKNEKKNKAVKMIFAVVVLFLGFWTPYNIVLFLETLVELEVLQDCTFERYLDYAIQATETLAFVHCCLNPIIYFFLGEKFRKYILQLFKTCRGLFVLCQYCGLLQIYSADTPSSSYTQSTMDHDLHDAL

CXCR4 (human), P61073 = target: T7, CXCR4 (human), P61073; experiment: as above
T7 chain: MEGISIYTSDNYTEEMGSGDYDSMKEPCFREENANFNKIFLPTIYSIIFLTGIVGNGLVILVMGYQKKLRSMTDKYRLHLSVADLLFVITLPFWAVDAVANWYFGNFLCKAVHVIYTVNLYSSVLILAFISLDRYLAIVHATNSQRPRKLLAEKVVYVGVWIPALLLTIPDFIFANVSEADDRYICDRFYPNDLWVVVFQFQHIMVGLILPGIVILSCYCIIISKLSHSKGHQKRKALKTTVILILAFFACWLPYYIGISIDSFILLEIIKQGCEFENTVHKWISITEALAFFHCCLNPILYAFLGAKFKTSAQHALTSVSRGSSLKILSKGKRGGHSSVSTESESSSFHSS

CCR5 (human), P51681 [7] = experiment: as above
CCR5 (human), P51681 [8] = experiment: 12-point Scatchard, parental HOS line (the filing suggests background CCR5); conditions: remark: other sources report otherwise
CCR5 (human), P51681 [9] = experiment: 12-point Scatchard, HOS CCR5 line; conditions: remark: other sources report otherwise
CCR5 (human), P51681 [10] = experiment: 12-point Scatchard, 0.03 nM 125I-RANTES with cold RANTES, 4° C., 2 hours; conditions: remark: other sources report otherwise
CCR5 (human), P51681 [11] = experiment: 125I-RANTES Scatchard, parental HOS line (the filing suggests background CCR5); conditions: remark: other sources report otherwise
CCR5 (human), P51681 [12] = experiment: 125I-RANTES Scatchard, HOS CCR5 line; conditions: remark: other sources report otherwise
[13] = target: chemokine receptors on the surface of Jurkat cells; experiment: binding to Jurkat cells
[14] = target: Duffy Antigen Receptor for Chemokines (DARC) (human) (UniProt Q16570); experiment: DARC binding, red blood cells (given as association constant)
[15] = target: chemokine receptors on THP-1 cells; experiment: binding to THP-1 cells (given as association constant)
[16] = target: Duffy Antigen Receptor for Chemokines (DARC) (human) (UniProt Q16570); experiment: estimated ka for red blood cells divided by average inhibitory ED50
[17] = target: T1, Duffy Antigen Receptor for Chemokines …; experiment: ka for red blood cells divided by ka for THP-1 cells
[18] = target: chemokine receptors on THP-1 cells; experiment: receptors on THP-1 cells against DARC
[19] = target: T1, Duffy Antigen Receptor for Chemokines …; experiment: DARC binding
CCR5 (human), P51681 [20] = experiment: cell-based or functional assay
MCP-1 (human), P13500 = experiment: cell-based or functional assay
MCP-1 (human), P13500, sequence (P13500 24-99 limits assumed): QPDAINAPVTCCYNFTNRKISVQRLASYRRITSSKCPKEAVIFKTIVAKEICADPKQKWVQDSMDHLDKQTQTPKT

CCR5 (human), P51681, sequence (P51681 whole entry): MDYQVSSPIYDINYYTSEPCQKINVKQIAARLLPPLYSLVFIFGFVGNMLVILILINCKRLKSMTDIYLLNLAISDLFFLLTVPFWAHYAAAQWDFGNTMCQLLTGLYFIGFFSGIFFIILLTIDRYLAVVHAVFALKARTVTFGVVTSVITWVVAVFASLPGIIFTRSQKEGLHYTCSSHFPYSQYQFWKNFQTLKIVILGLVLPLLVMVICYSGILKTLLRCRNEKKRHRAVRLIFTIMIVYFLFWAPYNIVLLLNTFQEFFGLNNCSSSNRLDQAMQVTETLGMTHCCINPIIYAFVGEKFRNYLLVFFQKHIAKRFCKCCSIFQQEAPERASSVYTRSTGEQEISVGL
CCR5 (human), sequence (P51681 whole entry): as above
CCR2 (human), P41597, sequence (P41597 whole entry): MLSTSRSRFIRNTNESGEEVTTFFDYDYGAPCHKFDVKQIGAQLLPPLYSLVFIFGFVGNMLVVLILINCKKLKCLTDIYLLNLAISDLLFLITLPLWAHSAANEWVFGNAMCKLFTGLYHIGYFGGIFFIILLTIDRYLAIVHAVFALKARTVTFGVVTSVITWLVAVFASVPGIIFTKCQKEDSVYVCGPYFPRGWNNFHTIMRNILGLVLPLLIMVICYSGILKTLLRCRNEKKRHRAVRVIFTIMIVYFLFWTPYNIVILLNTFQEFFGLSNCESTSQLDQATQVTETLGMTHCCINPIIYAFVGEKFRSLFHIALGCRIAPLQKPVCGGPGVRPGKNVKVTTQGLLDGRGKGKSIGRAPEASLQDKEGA

B1: Pep2(1-14)[MIP1α] (peptide)
peptide: DYFETSSQCSKPGV
Chemokine receptors
  IC50: > 100 µM
[1]
  binding sites per cell (sites per cell): 150000

B2: LRD peptide 2(1-15)[MCP-1] (peptide)
peptide: VAEKPCKSSTIRRYS
modifications: not fully specified (some residues)
[2]
  DARC binding: 18 µM
Chemokine receptors
  IC50: 3 µM
[3]
  Kd: 25 µM
[4]
  fold decrease in Duffy binding against LFL: 100 fold
CXCR4 (human)
  Kd: < 0.1 µM
CCR5 (human)
  Kd: < 0.1 µM

B3: Ser7Glu8Glu9 peptide 3(1-12)[MCP-1] (peptide)
peptide: EICADPSEEWVQ
modifications: not fully specified
[5]
  Duffy selectivity: 0.59

B4: N-terminal biotin conjugate of the sequence n'-…-c' (peptide)
peptide: CLDPKQKWIQC
modifications: not fully specified (N-terminus); cysteine pairing not given here
CXCR1 (human), P25024
  Kd: > 10 µM
CXCR2 (human), P25025
  Kd: > 10 µM
[6]
  binding sites per cell (receptors/cell): 1000
CCR2 (human), P41597
  Kd: > 10 µM
CCR1 (human), P32246
  Kd: > 10 µM
CCR3 (human), P51677
  Kd: > 10 µM
CCR4 (human), P51679
  Kd: > 10 µM
CXCR4 (human), P61073
  Kd: > 10 µM
CCR5 (human), P51681 [7]
  Kd: > 10 µM

B5: RANTES, P13501 24-91 (ligand, UniProt P13501 24-91, looked up)
chain: SPYSSDTTPCCFAYIARPLPRAHIKEYFYTSGKCSNPAVVFVTRKNRQVCANPEKKWVREYINSLEMS
CCR5 (human), P51681 [8]
  binding sites per cell (sites per cell): 100000
CCR5 (human), P51681 [9]
  binding sites per cell (sites per cell): 200000
CCR5 (human), P51681 [10]
  Kd: 0.001 µM
CCR5 (human), P51681 [11]
  binding sites per cell (sites per cell): 80000
CCR5 (human), P51681 [12]
  binding sites per cell (sites per cell): 200000 and 400000

B6: Pep2(1-15)[SDF1] (peptide)
peptide: HLKILNTPNCALQIV
Chemokine receptors
  IC50: 35 µM

B7: peptide 2(1-15)[MCP-1] (peptide)
peptide: SYRRITSSKCPKEAV
Chemokine receptors
  IC50: 0.4 µM
[1]
  binding sites per cell: 130000 sites/cell
[13]
  binding sites per cell: 55000 sites/cell

B8: CRD-Cys13Leu4Ile11 peptide 3(3-12)[MCP-1] (peptide)
peptide: CQIWKQKPDLC
modifications: not fully specified (some residues, bridges); cysteine pairing not given here
[14]
  Kd: 90 µM
[1]
  binding sites per cell (sites per cell): 150000
[15]
  Kd: 0.1 to 0.5 µM
[16]
  Duffy selectivity: > 100

B9: Pep2(1-16)[IL8] (peptide)
peptide: ELRVIESGPHCANTEI
modifications: not fully specified
[17]
  Duffy selectivity: < 1

B10: Leu4Ile11 peptide 3(1-12)[MCP-1] (peptide)
peptide: EICLDPKQKWIQ
modifications: not fully specified
[5]
  Duffy selectivity: 37.8
[18]
  fold selectivity over DARC: > 20 fold

B11: CRD-Cys13pep3[3-12] (peptide)
peptide: CQVWKQKPDAC
modifications: not fully specified (some residues, bridges); cysteine pairing not given here
[16]
  Duffy selectivity: 8.82

B12: Pep3(3-12)[MCP-1] (peptide)
peptide: CADPKQKWVQ
modifications: not fully specified
[5]
  Duffy selectivity: 1.21

B13: Ser10 variant of peptide 2(1-15)[MCP-1] (peptide)
peptide: SYRRITSSKSPKEAV
modifications: not fully specified
[19]
  DARC binding: 20 to 100 µM

B14: peptide 3(1-12)[MCP-1] (peptide)
peptide: EICADPKQKWVQ
modifications: not fully specified
[5]; remark: other sources report otherwise
  Duffy selectivity: 1
CCR5 (human), P51681 [20]
  decrease in HIV infection of THP-1 cells, immunofluorescence staining: 83%

B15: Ser7 peptide 3(1-12)[MCP-1] (peptide)
peptide: EICADPSQKWVQ
modifications: not fully specified
[5]
  Duffy selectivity: 2

B16: Peptide 1[MCP-1] (peptide)
peptide: AQPDAINAPVTCC
modifications: not fully specified; cysteine pairing not given here
MCP-1 (human), P13500
  inhibition of MCP-1 induced THP-1 migration, peptide with the chemokine in the lower compartment: 48%
